Numbering of substitutions follows the chain as printed.
Experiments:
HLA-DR3 (DRB1*0301) = HLA-DR3 (DRB1*0301) (Homo sapiens, UniProt P01903+P01911, A100K/A102G/A103R/A169T/F55Y/I96L/K41T/L162R/M171V/P40S/Q125H/Q178H/Q39Y/R42S/S66N/T106N/T262R/W38E/Y61H); experiment: HLA II/peptide competition binding assay, DR3; settings: ratio of IC50 of competitor peptide to IC50 of reference peptide; mean of at least two independent experiments; less than 100 = active
HLA-DR15 (DRB1*1501) = HLA-DR15 (DRB1*1501) (Homo sapiens, UniProt P01903+P01911); experiment: HLA II/peptide competition binding assay, DR15; settings: ratio of IC50 of competitor peptide to IC50 of reference peptide; mean of at least two independent experiments; less than 100 = active
HLA-DR7 (DRB1*0701) = HLA-DR7 (DRB1*0701) (Homo sapiens, UniProt P01903+P01911, A100R/A102G/A103Q/D57E/D86V/E43K/F76Y/K127E/L162R/M171V/P40G/Q125H/Q99D/R33Q/R42Y/R54Q/S133A/S66F/T210M/V115G/Y107V/Y59L/Y89S); experiment: HLA II/peptide competition binding assay, DR7; settings: ratio of IC50 of competitor peptide to IC50 of reference peptide; mean of at least two independent experiments; less than 100 = active
HLA-DR1 (DRB1*0101) = HLA-DR1 (DRB1*0101) (Homo sapiens, UniProt P01903+P01911, A100R/D57E/F55L/F60I/F76Y/I96L/L162R/M171V/P40L/Q125E/R42F/V115G/Y59C); format: binding; settings: ratio of IC50 of competitor peptide to IC50 of reference peptide; mean of at least two independent experiments; less than 100 = active
HLA-DR13 (DRB1*1301) = HLA-DR13 (DRB1*1301) (Homo sapiens, UniProt P01903+P01911, A100E/A169T/K41T/L162R/M171V/P40S/Q125H/Q178H/Q39Y/Q99D/R42S/S66N/T262R/W38E/Y61H); experiment: HLA II/peptide competition binding assay, DR13; settings: ratio of IC50 of competitor peptide to IC50 of reference peptide; mean of at least two independent experiments; less than 100 = active
HLA-DP401 (DPB1*0401) = biological target: T1, HLA-DP401 (DPB1*0401) (Homo sapiens, UniProt P04440+P20036); format: binding; settings: ratio of IC50 of competitor peptide to IC50 of reference peptide; mean of at least two independent experiments; less than 100 = active
T1 sequence (P04440 30-258): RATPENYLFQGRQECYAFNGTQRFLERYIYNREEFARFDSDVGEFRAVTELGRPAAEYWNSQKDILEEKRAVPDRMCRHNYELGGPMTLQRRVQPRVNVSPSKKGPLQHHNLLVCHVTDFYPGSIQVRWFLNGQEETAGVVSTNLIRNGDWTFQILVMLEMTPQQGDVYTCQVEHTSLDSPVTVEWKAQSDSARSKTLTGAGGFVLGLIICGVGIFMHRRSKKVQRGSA
T1 sequence (P20036 29-260): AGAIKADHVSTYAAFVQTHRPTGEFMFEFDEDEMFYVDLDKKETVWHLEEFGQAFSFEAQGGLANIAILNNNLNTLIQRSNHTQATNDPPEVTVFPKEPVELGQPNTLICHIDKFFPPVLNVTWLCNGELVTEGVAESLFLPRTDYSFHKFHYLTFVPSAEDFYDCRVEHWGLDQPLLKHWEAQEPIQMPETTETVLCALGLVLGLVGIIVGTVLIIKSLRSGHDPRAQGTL

HLA-DRB3 (DRB3*0101) = HLA-DRB3 (DRB3*0101) (Homo sapiens, UniProt P01903+P79483); experiment: HLA II/peptide competition binding assay, DRB3; settings: ratio of IC50 of competitor peptide to IC50 of reference peptide; mean of at least two independent experiments; less than 100 = active
HLA-DRB5 (DRB5*0101) = HLA-DRB5 (DRB5*0101) (Homo sapiens, UniProt P01903+Q30154); experiment: HLA II/peptide competition binding assay, DRB5; settings: ratio of IC50 of competitor peptide to IC50 of reference peptide; mean of at least two independent experiments; less than 100 = active
[1] = tested on: 12 predominant HLA II molecules; experiment: HLA II/peptide binding assays, count over the panel; set-up: species or system human; settings: relative activity of less than 100 characterizes the active peptides
Source text: The assays for binding to HLA II molecules are competition binding assays with immunoenzymatic visualization, as described in U.S. Pat. No. 6,649,166 and PCT international application WO 03/040299, respectively, for the HLA-DR and HLA-DP4 molecules. The implementation of these assays for measuring the binding activity of peptides derived from various antigens is illustrated in U.S. Pat. No. 6,649,166 and PCT international applications WO 02/090382, WO 03/040299 and WO 2004/014936.
The sensitivity of each test is reflected by the IC50 values observed with the nonbiotinylated peptides which correspond to the tracers. […] The results are expressed in the form of relative activity (ratio of the IC50 of the competitor peptide to that of the reference peptide (nonbiotinylated peptide which corresponds to the tracer)). A relative activity of less than 100 characterizes the active peptides.

HLA-DRB4 (DRB4*0101) = HLA-DRB4 (DRB4*0101) (Homo sapiens, UniProt P01903+P13762, G164S); experiment: HLA II/peptide competition binding assay, DRB4; settings: ratio of IC50 of competitor peptide to IC50 of reference peptide; mean of at least two independent experiments; less than 100 = active
HLA-DR4 (DRB1*0401) = HLA-DR4 (DRB1*0401) (Homo sapiens, UniProt P01903+P01911, A100K/A169T/F76Y/I96L/K127E/L162R/M171V/N62H/P40V/Q125Y/R42H/S133A/S149N/S66Y/V115G/V209L/W38E); experiment: HLA II/peptide competition binding assay, DR4; settings: ratio of IC50 of competitor peptide to IC50 of reference peptide; mean of at least two independent experiments; less than 100 = active
HLA-DP402 (DPB1*0402) = biological target: T2, HLA-DP402 (DPB1*0402) (Homo sapiens, UniProt P04440+P20036, A65V/A84D/A85E/L207M); format: binding; settings: ratio of IC50 of competitor peptide to IC50 of reference peptide; mean of at least two independent experiments; less than 100 = active
T2 sequence (P04440 30-258 A65V/A84D/A85E): T1 sequence (P04440 30-258) with A36V, A55D, A56E
T2 sequence (P20036 29-260): T1 sequence (P20036 29-260)

HLA-DR11 (DRB1*1101) = HLA-DR11 (DRB1*1101) (Homo sapiens, UniProt P01903+P01911, A100R/A169T/A87E/I96F/K41T/L162R/M171V/P40S/Q125H/Q178H/Q39Y/Q99D/R42S/S66Y/T262R/V115G/W38E); format: binding; settings: ratio of IC50 of competitor peptide to IC50 of reference peptide; mean of at least two independent experiments; less than 100 = active

Row | Substance | Relative binding activity, DR3 (HLA-DR3 (DRB1*0301)) | Relative binding activity, DR15 (HLA-DR15 (DRB1*1501)) | Relative binding activity, DR7 (HLA-DR7 (DRB1*0701)) | Relative binding activity, DR1 (HLA-DR1 (DRB1*0101)) | Relative binding activity, DR13 (HLA-DR13 (DRB1*1301)) | Relative binding activity, DP401 (HLA-DP401 (DPB1*0401)) | Relative binding activity, DRB3 (HLA-DRB3 (DRB3*0101)) | Relative binding activity, DRB5 (HLA-DRB5 (DRB5*0101)) | Total (number of the 12 predominant HLA II molecules bound) [1] | Relative binding activity, DRB4 (HLA-DRB4 (DRB4*0101)) | Relative binding activity, DR4 (HLA-DR4 (DRB1*0401)) | Relative binding activity, DP402 (HLA-DP402 (DPB1*0402)) | Relative binding activity, DR11 (HLA-DR11 (DRB1*1101))
1 | A E W A W G P C T P S S K D C (AEWAWGPCTPSSKDC) [MDK 38-52] | >419 | >529 | >2 479 | 1 305 | >2 537 | >879 | >485 | >2 100 | 0 | >28 868 | 1 859 | – | –
2 | C G V G F R E G T C G A Q T Q (CGVGFREGTCGAQTQ) [MDK 52-64] | >419 | >529 | >2 479 | – | >2 537 | >879 | >485 | >2 100 | 1 | >28 868 | – | >976 | –
3 | C K Y K F E N W G A C D G G T (CKYKFENWGACDGGT) [MDK 84-98] | >419 | 141 | >2 479 | 187 | >2 537 | – | >485 | – | 2 | >28 868 | – | – | >1 086
4 | C N W K K E F G A D C K Y K F (CNWKKEFGADCKYKF) [MDK 74-88] | – | >529 | >2 479 | – | >2 537 | >879 | – | – | 1 | >28 868 | >1 812 | >976 | 1 231
5 | C R V P C N W K K E F G A D C (CRVPCNWKKEFGADC) [MDK 70-84] | >419 | >529 | >2 479 | – | >2 537 | – | – | >2 100 | 2 | >28 868 | 1 562 | >976 | >1 086
6 | E N W G A C D G G T G T K V R (ENWGACDGGTGTKVR) [MDK 89-103] | >419 | >529 | >2 479 | 1 460 | >2 537 | >879 | 2 333 | >2 100 | 0 | >28 868 | >1 812 | >976 | >1 086

Source: US20110159022A1, “Immunogenic Peptides Derived from the Midkine Protein, as an Anticancer Vaccine” (priority 2008, published 2011)
